Experimental data taken from IntAct's records for PubMed 19415799.

B1: Cell division protein FtsZ (Escherichia coli (strain K12)), P0A9A6 (parent)
chain: MFEPMELTNDAVIKVIGVGGGGGNAVEHMVRERIEGVEFFAVNTDAQALRKTAVGQTIQIGSGITKGLGAGANPEVGRNAADEDRDALRAALEGADMVFIAAGMGGGTGTGAAPVVAEVAKDLGILTVAVVTKPFNFEGKKRMAFAEQGITELSKHVDSLITIPNDKLLKVLGRGISLLDAFGAANDVLKGAVQGIAELITRPGLMNVDFADVRTVMSEMGYAMMGSGVASGEDRAEEAAEMAISSPLLEDIDLSGARGVLVNITAGFDLRLDEFETVGNTIRAFASDNATVVIGTSLDPDMNDELRVTVVATGIGMDKRPEITLVTNKQVQQPVMDRYQQHGMAPLTQEQKPVAKVVNDNAPQTAKEPDYLDIPAFLRKQAD
partner: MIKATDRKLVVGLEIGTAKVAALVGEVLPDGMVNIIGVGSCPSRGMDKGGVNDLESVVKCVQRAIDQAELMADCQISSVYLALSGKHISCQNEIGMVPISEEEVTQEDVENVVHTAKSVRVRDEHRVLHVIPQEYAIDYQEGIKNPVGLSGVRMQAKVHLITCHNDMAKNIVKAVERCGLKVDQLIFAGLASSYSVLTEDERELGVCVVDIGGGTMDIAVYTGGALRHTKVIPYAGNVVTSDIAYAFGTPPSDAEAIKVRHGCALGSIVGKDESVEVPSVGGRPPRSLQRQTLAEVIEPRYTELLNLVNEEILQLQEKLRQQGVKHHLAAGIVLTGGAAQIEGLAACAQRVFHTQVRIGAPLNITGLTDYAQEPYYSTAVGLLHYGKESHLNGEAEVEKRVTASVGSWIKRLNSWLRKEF

Variants of: B1
Settings: with ftsa_ecoli ftsA

Variant	effect of a mutation on the interaction
I374V	decreasing interaction strength
